In US20060040855A1 (published 2006):

Biological target: rat LH receptor (rat, UniProt P16235)
Assay: cell-based or functional assay

Row | Binder | Efficacy, cyclic AMP accumulation [%]
1 | dgα5-β8 (dg-αQ5C/hCGβR8C) (ligand) chain 1: not shown chain 2: SKEPLRPCCRPINATLAVEKEGCPVCITVNTTICAGYCPTMTRVLQGVLPALPQVVCNYRDVRFESIRLPGCPRGVNPVVSYAVALSCQCALCRRSTTDCGGPKDHPLTCDDPRFQDSSSSKAPPPSLPSPSRLPGPSDTPILPQ | 36
2 | dgα27-β44 (dg-αQ27C/hCGβV44C) (ligand) chain 1: not shown chain 2: SKEPLRPRCRPINATLAVEKEGCPVCITVNTTICAGYCPTMTRCLQGVLPALPQVVCNYRDVRFESIRLPGCPRGVNPVVSYAVALSCQCALCRRSTTDCGGPKDHPLTCDDPRFQDSSSSKAPPPSLPSPSRLPGPSDTPILPQ | 14
3 | dgα76-β44 (dg-αV76C/hCGβV44C) (ligand) chain 1: not shown chain 2: SKEPLRPRCRPINATLAVEKEGCPVCITVNTTICAGYCPTMTRCLQGVLPALPQVVCNYRDVRFESIRLPGCPRGVNPVVSYAVALSCQCALCRRSTTDCGGPKDHPLTCDDPRFQDSSSSKAPPPSLPSPSRLPGPSDTPILPQ | 34
